The values below come from patent publication US20030235857A1 (WHITEHEAD INSTITUTE FOR BIOMEDICAL RESEARCH A DELAWARE, published 2003).

B2: Tpk1 fused to the Gal4 DNA binding domain (enzyme, UniProt P04386 1-147, looked up)
chain: MKLLSSIEQACDICRLKKLKCSKEKPKCAKCLKNNWECRYSPKTKRSPLTRAHLTEVESRLERLEQLFLLIFPREDLDMILKMDSLQDIKALLTGLFVQDNVNKDAVTDRLASVETDMPLTLRQHRISATSSSEESSNKGQRQLTVSMSTEEQNGGGQKSLDDRQGEESQKGETSERETTATESGNESKSVEKEGGETQEKPKQPHVTYYNEEQYKQFIAQARVTSGKYSLQDFQILRTLGTGSFGRVHLIRSRHNGRYYAMKVLKKEIVVRLKQVEHTNDERLMLSIVTHPFIIRMWGTFQDAQQIFMIMDYIEGGELFSLLRKSQRFPNPVAKFYAAEVCLALEYLHSKDIIYRDLKPENILLDKNGHIKITDFGFAKYVPDVTYTLCGTPDYIAPEVVSTKPYNKSIDWWSFGILIYEMLAGYTPFYDSNTMKTYEKILNAELRFPPFFNEDVKDLLSRLITRDLSQRLGNLQNGTEDVKNHPWFKEVVWEKLLSRNIETPYEPPIQQGQGDTSQFDKYPEEDINYGVQGEDPYADLFRDF
notes: Two-hybrid bait used for retesting positive clones
B3: Tpk3 fused to the Gal4 DNA binding domain (enzyme, UniProt P04386 1-147, looked up)
chain: MKLLSSIEQACDICRLKKLKCSKEKPKCAKCLKNNWECRYSPKTKRSPLTRAHLTEVESRLERLEQLFLLIFPREDLDMILKMDSLQDIKALLTGLFVQDNVNKDAVTDRLASVETDMPLTLRQHRISATSSSEESSNKGQRQLTVSMYVDPMNNNEIRKLSITAKTETTPDNVGQDIPVNAHSVHEECSSNTPVEINGRNSGKLKEEASAGICLVKKPMLQYRDTSGKYSLSDFQILRTLGTGSFGRVHLIRSNHNGRFYALKTLKKHTIVKLKQVEHTNDERRMLSIVSHPFIIRMWGTFQDSQQVFMVMDYIEGGELFSLLRKSQRFPNPVAKFYAAEVCLALEYLHSKDIIYRDLKPENILLDKNGHIKITDFGFAKYVPDVTYTLCGTPDYIAPEVVSTKPYNKSVDWWSFGVLIYEMLAGYTPFYNSNTMKTYENILNAELKFPPFFHPDAQDLLKKLITRDLSERLGNLQNGSEDVKNHPWFNEVIWEKLLARYIETPYEPPIQQGQGDTSQFDRYPEEEFNYGIQGEDPYMDLMKEF
notes: Two-hybrid bait used for retesting positive clones; also called YKL166c

What all share (assay): yeast two-hybrid, GAL4-ADE2 reporter, growth without adenine
The target in assay [1] is B2. An excerpt:
(§1) Other additional members of these signal transduction cascades are identified through a variety of standard techniques. First, enhancers and suppressors of phenotypes of mutant strains are isolated using standard techniques known to those skilled in the art (Ausubel, supra). Second, proteins which interact with pathway members are isolated using yeast two-hybrid methods (Fields and Song, Nature 1989, 340:245-246; Chien et al., Proc. Natl. Acad. Sci. USA 1991, 88:9578-9582; Brent and Finley, Annu. Rev. Genet. 1997, 31:663-704). In one example, proteins which specifically interact with an A kinase catalytic subunit Tpk2, and not with related proteins Tpk1 and Tpk3 were identified and shown to be important for pseudohyphal development. […] Similarly, haploid tpk2 mutants were defective for invasive growth and tpk3 mutants were hyperinvasive (FIG. 2A). tpk1 mutants were indistinguishable from wild-type strains as both haploids and diploids. The accentuated filamentation and invasion phenotypes of tpk3 mutants required a functional Tpk2 as tpk2 tpk3 mutants had the same phenotype as tpk2 single mutants. As Tpk2 appeared to be uniquely required for pseudohyphal growth, we used a two-hybrid screen to identify proteins that interact specifically with Tpk2. The intact open reading frame of TPK2 was fused to coding sequence for the Gal4 DNA binding domain and used to screen a library of yeast genomic fragments fused to coding sequence for the Gal4 transcriptional activation domain. Activation of the GAL4-ADE2 reporter, leading to adenine-independent growth of an ade-strain was taken as preliminary evidence for an interaction between the Gal4 DNA binding domain:Tpk2 fusion and the Tpk2 interacting protein fused to the Gal4 activation domain. Positive clones were then retested in the two-hybrid assay with Tpk1, Tpk2, Tpk3, or Dph1 fused to the Gal4 DNA binding domain. DPH1, a gene required for diphthamide biosynthesis, as used to control for interactions that were not specific to the PKA isoforms.

Assay [2] has as its target B3.
Source text: as §1

In assay [3] the target is T1, Sfl1 fused to the Gal4 activation domain (Saccharomyces cerevisiae, UniProt P20134 1-766, limits assumed).
T1 construct: also called YOR140w
T1 sequence (looked up): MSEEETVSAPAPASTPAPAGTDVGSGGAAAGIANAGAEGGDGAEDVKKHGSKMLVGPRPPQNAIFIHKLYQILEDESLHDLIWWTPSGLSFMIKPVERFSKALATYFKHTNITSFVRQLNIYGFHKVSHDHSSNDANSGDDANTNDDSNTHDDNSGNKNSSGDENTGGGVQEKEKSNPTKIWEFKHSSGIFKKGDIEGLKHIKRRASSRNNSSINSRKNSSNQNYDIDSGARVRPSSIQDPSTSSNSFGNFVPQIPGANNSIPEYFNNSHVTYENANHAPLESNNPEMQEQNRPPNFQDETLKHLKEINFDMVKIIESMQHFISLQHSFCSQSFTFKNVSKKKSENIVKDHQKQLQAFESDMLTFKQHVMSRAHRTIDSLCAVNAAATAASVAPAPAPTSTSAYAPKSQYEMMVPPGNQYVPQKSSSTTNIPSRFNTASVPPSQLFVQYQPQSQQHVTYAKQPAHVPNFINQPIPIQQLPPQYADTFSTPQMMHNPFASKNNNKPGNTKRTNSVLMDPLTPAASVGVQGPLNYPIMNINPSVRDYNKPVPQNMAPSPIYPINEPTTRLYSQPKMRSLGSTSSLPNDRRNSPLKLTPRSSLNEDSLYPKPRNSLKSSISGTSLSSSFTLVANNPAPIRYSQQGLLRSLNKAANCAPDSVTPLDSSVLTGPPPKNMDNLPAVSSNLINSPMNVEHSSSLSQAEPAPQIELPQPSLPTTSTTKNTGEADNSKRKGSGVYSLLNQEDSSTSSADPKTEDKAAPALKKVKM
Source text: as §1

B1: Mga1 fused to the Gal4 activation domain (other, Saccharomyces cerevisiae, UniProt P53050 1-456, looked up, not shown: large carriers)
chain: MQPKTFVHQLHAILLEPEVNKWIYWSPTDNTVFFLKPYDPNFSTHVLKRYFKHGNVNSFVRQLHMYGFHKLSHPSPDQSSANNGNVKELVEWKFTHPSGFFFKEANAGILNKIQRKSTGVGKDGKRKNILSPISVSYVDASRLNVLSQQSGPVSAREPSNMFMGSPVHYSTSQSPPHISIPQQQQSSGPYLISSLPPQQPTVNMMRRQSISARMMNSYDYPNQFSTQDSIVQPQQPQQVLSPQALSGPPMKKSGTLSSTDDLKTTSLPIVNYPMPYHPGAFAQQQQQQQQPLPTVPPYSSYSTPFPSMMNSLSNSASNSPALGVCNNNVTLPKKSNISERQALDNHIQTLKNSLSTITDLIEKHINSASQDENKTLTNDAMNKDLRTSLSLLQNSKEEIIQLESKWMSMQSVKTTALPLQETTNTSSTLTSLTSSIIPKSIPIITKGEVATKPASY
notes: also called YGR249w
Turning to B1, the binding result in assay [1] and in assay [2] was “no binding” throughout.

Turning to B2, in assay [3], the binding result is recorded as “no binding”.

Regarding B3, the binding result in assay [3] is “no binding”.
